Where two headings read alike, the source gives them in different places.
Legend:
[1] = biological target: PD-L1 on PD-L1 aAPC/CHOK1 cells (Promega J1250); experiment: cell-based or functional assay
[2] = biological target: PD-L1 on PD-L1 aAPC/CHOK1 cells (Promega J1250); experiment: cell-based or functional assay; remark: listed apart in the source
[3] = biological target: PD-L1 on PD-L1 aAPC/CHOK1 cells (Promega J1250); experiment: cell-based or functional assay; remark: listed apart in the source
[4] = biological target: T1, PD-L1 biotinylated (PD-1/PD-L1 TR-FRET assay kit, BPS 72038) (Homo sapiens (Human), UniProt Q9NZQ7 19-238, biotinylated; site not stated); experiment: HTRF competition, competitor PD-1-Eu
T1 construct: Kit reagent
Description: (§1) Briefly, 1× Immuno buffer 1 was made. […] For each well in 384-well plate, serial diluted scFvs and regents were added according to manufacturer's recommended volume. Samples were incubated at room temperature for 1.5 hours then the fluorescent intensity was read with Biotek Neo2 plate reader using manufacture's instrument setting for the assay.

[5] = biological target: T1, PD-L1 biotinylated (PD-1/PD-L1 TR-FRET …); experiment: HTRF competition, competitor PD-1-Eu; remark: listed apart in the source
Description: as §1

[6] = biological target: T1, PD-L1 biotinylated (PD-1/PD-L1 TR-FRET …); experiment: HTRF competition, competitor PD-1-Eu; remark: listed apart in the source
Description: as §1

[7] = biological target: T2, human PD-L1-HIS tagged recombinant protein (human, UniProt Q9NZQ7 19-238); experiment: ELISA, coated PD-L1-HIS, anti-hFc HRP
T2 construct: also called hPD-L1-HIS; PD-L1 HIS tagged protein
Description: (§2) The plate was incubated overnight at 4° C. followed by blocking with 80 μL of superblock per well for 1 hour. […] In between each step, the plate was washed 3 times with 1×PBST in a plate washer. The plate was then developed with 20 μL of TMB substrate for 5 min and stopped by adding 20 μL of 2N sulfuric acid. The plate was read at OD450 nm Biotek plate reader and then plotted in Prism 8.1 software.

[8] = biological target: T2, human PD-L1-HIS tagged recombinant …; experiment: SPR, IgG on Protein A, PD-L1-HIS analyte
Description: The assay was run with Biacore T200 control software version 2.0. For each cycle, 1 μg/mL of anti-hPD-L1-IgG was captured for 60 seconds at flow rate of 10 μl/min on flow cell 2 in 1×HBSP buffer on Protein A sensor chip. […] The flow cells were then regenerated with Glycine pH 2 for 60 seconds at flow rate of 30 μl/min. […] The specific binding response unit was derived from subtraction of binding to reference flow cell 1 from antibody captured flow cell 2.

[9] = biological target: T2, human PD-L1-HIS tagged recombinant …; experiment: SPR, Protein A capture, PD-L1-HIS analyte
[10] = biological target: T3, full-length human PD-L1 on K562 cells (human, UniProt Q9NZQ7 19-290); experiment: FACS, PD-L1/K562 cells, anti-hFc Alexa Fluor 647
T3 construct: also called PD-L1/K562; cell surface human PD-L1
Description: (§3) Cells were spun down at 1200 rpm for 5 minutes at 4° C. to remove primary antibodies. Cells were then washed once with 200 μL of full medium per well. […] Samples were spun down at 1200 rpm for 5 minutes at 4° C. and washed twice with 200 μL of 1×PBS per well. Reconstituted samples in 200 μL of 1×PBS and read on Attune NxT cytometer.

[11] = biological target: T4, biotinylated PD-L1 (Homo sapiens (Human), UniProt Q9NZQ7 19-238, biotinylated; site not stated); experiment: ELISA, anti-human Fc capture, biotinylated PD-L1
Description: A 384 well plate was immobilized with anti-human Fc at final concentration of 2 μg/mL in 1×PBS in total volume of 25 μL per well. The plate was incubated overnight at 4° C. followed by blocking with 80 μL of superblock per well for 1 hour. […] In between each step, the plate was washed 3 times with 1×PBST in a plate washer. […] The plate was read at OD450 nm Biotek plate reader and the binding correlation was plotted with Prism 8.1 software.

[12] = biological target: T4, biotinylated PD-L1; experiment: ELISA as described in Example 7 (value equals Table 17)
[13] = biological target: T5, recombinant His-tagged human IL-2Rα (human, UniProt P01589 22-213, limits assumed); experiment: ELISA, coated His-tagged human IL-2Rα, OD 450 nm
T5 construct: also called IL-2Rα-HIS; CD25
T5 sequence (looked up): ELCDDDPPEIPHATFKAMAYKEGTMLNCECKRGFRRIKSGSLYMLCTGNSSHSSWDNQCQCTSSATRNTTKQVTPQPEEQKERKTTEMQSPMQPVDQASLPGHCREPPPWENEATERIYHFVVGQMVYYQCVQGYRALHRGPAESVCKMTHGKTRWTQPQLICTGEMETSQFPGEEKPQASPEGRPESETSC
Description: (§4) For monovalent IL-2 Fc-fusion proteins, recombinant His-tagged human IL-2Rα and IL-2Rβ were added in 25 μL of 1×PBS to wells of 384-well plate and incubated overnight at 4° C. to coat the plates. Plates were washed three times with 0.05% Tween20/1×PBS. Plates were blocked with 100 μL of SuperBlock for 1 hr at RT and then washed 3 times with 0.05% Tween20/1×PBS. IL-2 mutants were diluted in 0.05% Tween 20/1×PBS from 1000 nM to 0 nM and added to plates for 2 hrs at room temperature. Plates were then washed 6 times with 0.05% Tween20/1×PBS. Anti-HisTag-HRP was diluted 1:5000 in 0.05% Tween20/1×PBS and added to plates for 1 hr at RT. Plates were then washed 6 times with 0.05% Tween 20/1×PBS, and TMB was added to develop blue color. Reactions were stopped with 2N […] and light absorbance at 450 nm was read on a BioTek plate reader. Absorbance versus IL-2 concentration is graphed for human IL-2Rα and IL-2Rβ.

[14] = biological target: T6, recombinant His-tagged human IL-2Rβ (human, UniProt P14784 27-240, limits assumed); experiment: ELISA, coated His-tagged human IL-2Rβ, OD 450 nm
T6 construct: also called IL-2Rβ-HIS; IL-15Rβ-HIS
T6 sequence (looked up): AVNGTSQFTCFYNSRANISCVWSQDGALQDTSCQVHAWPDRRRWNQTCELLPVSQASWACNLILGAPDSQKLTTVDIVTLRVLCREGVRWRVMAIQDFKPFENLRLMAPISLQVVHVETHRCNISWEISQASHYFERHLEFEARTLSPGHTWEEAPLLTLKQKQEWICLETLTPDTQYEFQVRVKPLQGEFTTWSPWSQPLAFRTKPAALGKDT
Description: as §4

[15] = biological target: T3, full-length human PD-L1 on K562 cells; experiment: FACS, PD-L1/K562 cells
Description: as §3, with “per well. Samples were reconstituted in 200” for “per well. Reconstituted samples in 200”, “1×PBS and were read on” for “1×PBS and read on”
(§5) The production, the binding, and all of the characterization assays for selected affinity matured scFv clones were performed as described above.

[16] = biological target: T7, human PD-L1-Fc (human, UniProt Q9NZQ7 19-238); experiment: SPR, PD-L1-Fc captured, scFv analyte
T7 construct: also called recombinant PD-L1-Fc fusion protein
Description: The assay was run with Biacore T200 control software version 2.0. Anti-human Fc antibody was immobilized on flow cell 1 and 2 of CM5 sensor chip. […] The flow cells were then regenerated with antibody regeneration buffer (GE Healthcare) for 30 seconds at flow rate of 30 μl/min.
as §5

[17] = biological target: T7, human PD-L1-Fc; experiment: ELISA, coated PD-L1-Fc, anti-FLAG HRP
Description: as §2, §5

[18] = biological target: T7, human PD-L1-Fc; experiment: SPR, PD-L1-Fc captured, scFv analyte; exponent sign missing in print, value set to E-03 from the same row's KD x kon

B1: anti-PD-L1 IgG1 antibody EP205/EP206 (2019EP69-F03) (antibody, V domains shown)
VH: QVQLVQSGAEVKKPGSSVKVSCKASGGTFSSYAISWVRQAPGQGLEWMGGIIPIFGTANYAQKFQGRVTITADESTSTAYMELSSLRSEDTAVYYCARDKWYGSAWRGDYWGQGTLVTVSS
VL: QSVLTQPPSASGTPGQRVTISCSGSYSNIGSNFVNWYQQLPGTAPKLLIHFNNQRPSGVPDRFSGSRSGTSASLAISGLQSEDEADYFCSTWDDSLKGPIFGGGTKLTVLG
notes: also called EP206/EP205
Q: B1 was tested. Which “Jurkat Reporter assay EC50” value [1] did it give?
A: The value was 550 pM.

Q: What about the “NFAT reporter EC50” value [2] of the same binder?
A: The value was 549 pM.

Q: And the “NFAT reporter EC50” value [3]?
A: Its value is 549 pM.

Q: What about the IC50 [4] of the same binder?
A: The IC50 was 128000 pM.

Q: What about the IC50 [5] of the same binder?
A: The IC50 was 128000 pM.

Q: And the IC50 [6]?
A: The IC50 was 128000 pM.

Q: What about the EC50 [7] of the same binder?
A: The EC50 was 164 pM.

Q: What about the Kd [8] of the same binder?
A: Its Kd is 363 pM.

Q: And the Kd [9]?
A: Its Kd is 363 pM.

Q: What about the koff [9] of the same binder?
A: The koff was 0.000347 s⁻¹.

Q: What about the kon [9] of the same binder?
A: The kon was 956000 M⁻¹ s⁻¹.

Q: What about the EC50 [10] of the same binder?
A: Its EC50 is 6.68 pM.

Q: What about the EC50 [11] of the same binder?
A: The EC50 was 260 pM.

Q: And the EC50 [12]?
A: Its EC50 is 164 pM.

Q: Does B1 bind [13]?
A: Result: no binding (tested: LOG(IL-2(nM)) about 1.8 (about 70 nM))

Q: Does B1 bind [14]?
A: Result: no binding (tested: LOG(IL-2(nM)) about 1.8 (about 70 nM))

B2: 2019EP69-C05 scFv (scFv, V domains shown)
VH: QVQLVQSGAEVKKPGSSVKVSCKASGGTFSSYAISWVRQAPGQGLEWMGGIIPIFGTANYAQKFQGRVTITADESTSTAYMELSSLRSEDTAVYYCARDKGYGSGFRGDYWGQGTLVTVSS
VL: QSVLTQPPSASGTPGQRVTISCSGSYSNIGSNFVNWYQQLPGTAPKLLIHFNNQRPSGVPDRFSGSRSGTSASLAISGLQSEDEADYFCSTWDDSLKGPIFGGGTKLTVL
Q: Which results are given for B2?
A: EC50 [15]: 221 pM; Kd [16]: 2580 pM; kon [16]: 1.76e+06 M⁻¹ s⁻¹; EC50 [17]: 507 pM; koff [18]: 0.00454 s⁻¹

From patent US20250340646A1 (ELPIS BIOPHARMACEUTICALS, published 2025)
